Reference: PMC2120989 (The Journal of Cell Biology, 1996)

T1: recombinant full-length (His)6-tagged Xenopus beta-catenin (Xenopus, UniProt P26233 1-781)
T1 sequence (looked up): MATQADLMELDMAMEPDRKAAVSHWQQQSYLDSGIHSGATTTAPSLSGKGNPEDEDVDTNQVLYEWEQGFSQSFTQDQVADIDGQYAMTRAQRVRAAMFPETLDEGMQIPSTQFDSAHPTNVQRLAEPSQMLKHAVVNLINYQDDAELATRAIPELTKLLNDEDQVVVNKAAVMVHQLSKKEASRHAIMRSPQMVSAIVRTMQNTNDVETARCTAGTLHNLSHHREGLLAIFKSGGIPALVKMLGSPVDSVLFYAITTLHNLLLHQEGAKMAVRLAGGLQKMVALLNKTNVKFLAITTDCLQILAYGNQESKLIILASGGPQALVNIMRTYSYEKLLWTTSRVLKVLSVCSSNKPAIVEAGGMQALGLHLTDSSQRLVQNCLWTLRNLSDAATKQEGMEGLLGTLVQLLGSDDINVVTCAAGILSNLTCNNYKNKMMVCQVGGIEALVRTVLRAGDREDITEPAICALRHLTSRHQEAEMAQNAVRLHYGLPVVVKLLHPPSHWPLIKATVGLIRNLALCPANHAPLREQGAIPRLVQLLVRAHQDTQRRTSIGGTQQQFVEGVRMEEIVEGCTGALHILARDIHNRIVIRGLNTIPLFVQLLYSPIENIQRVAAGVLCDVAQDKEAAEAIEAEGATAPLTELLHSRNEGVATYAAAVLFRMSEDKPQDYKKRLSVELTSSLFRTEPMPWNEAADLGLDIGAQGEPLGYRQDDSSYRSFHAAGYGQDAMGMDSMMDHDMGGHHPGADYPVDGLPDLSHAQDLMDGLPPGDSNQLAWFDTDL

B1: GST-E-cadherin fusion protein, cytoplasmic domain (residues 734-884) of mouse E-cadherin (domain or fragment)
chain: not shown
B2: GST fusion protein of the Armadillo repeat region of beta-catenin (amino acid residues 167-583) (domain or fragment)
chain: VVNKAAVMVHQLSKKEASRHAIMRSPQMVSAIVRTMQNTNDVETARCTAGTLHNLSHHREGLLAIFKSGGIPALVKMLGSPVDSVLFYAITTLHNLLLHQEGAKMAVRLAGGLQKMVALLNKTNVKFLAITTDCLQILAYGNQESKLIILASGGPQALVNIMRTYSYEKLLWTTSRVLKVLSVCSSNKPAIVEAGGMQALGLHLTDSSQRLVQNCLWTLRNLSDAATKQEGMEGLLGTLVQLLGSDDINVVTCAAGILSNLTCNNYKNKMMVCQVGGIEALVRTVLRAGDREDITEPAICALRHLTSRHQEAEMAQNAVRLHYGLPVVVKLLHPPSHWPLIKATVGLIRNLALCPANHAPLREQGAIPRLVQLLVRAHQDTQRRTSIGGTQQQFVEGVRMEEIVEGCTGALHILARD

How the values were obtained:
[1] = biological target: T1, recombinant full-length (His)6-tagged …; assay: co-IP
[2] = biological target: full-length recombinant fascin, thioredoxin fusion protein (mouse, UniProt Q61553 1-493); assay: co-IP

Binder	binding result [1]	binding result [2]
B1	binds	–
B2	–	binds
